{"source": "the nanobody polyreactivity screen of Harvey et al. (2022)"}
{"test": "yeast display, Sf9 membrane polyspecificity reagent, FACS + sequencing; frameworks hold sequencing errors", "outline": "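In a synthetic yeast display library (Saccharomyces cerevisiae BJ5465), nanobody expression was induced with galactose for 36–48 hours. FACS gates were set low and high (top ~1%) using anti-HA fluorescence for expression and streptavidin fluorescence for binding of the Sf9 membrane reagent. Each polyreactivity label is drawn from the gate of origin.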"}
{"sequence": "QVQLVESGGGLVQAGGSLRLSCAASGRIFSRYGMGWYRQAPGKERELVAGISSSGGSTYYADSVKGRFTISRDNAKNTVYLQMNSLKPEDTAVYYCAADDGFYGPDLDYRGQGTQVTVSS", "polyreactivity (PSR sort gate)": "low polyreactivity"}
{"sequence": "QVQLVESGGGLVQAGGSLRLSCAASGRIFSRYVMGWYRQAPGKERELVAAISGRATSTYYADSVKGRFTISRDNAKNTVYLQMNSLKPEDTAVYYCATGYKTYAVTLYDYWGQGTQVTVSS", "polyreactivity (PSR sort gate)": "high polyreactivity"}
{"sequence": "QVQLVESGGGLVQAGGSLRLSCAASGRIFSSNAMGWYRKAPGKEREFVAAINESGGITFYADSVKGRFTISRDNAKNTVYLQLNSLIPEDTAVYYCAKRDYSPWPADGYPYDYDYWGQGTQVTVSS", "polyreactivity (PSR sort gate)": "low polyreactivity"}
{"sequence": "QVQLVESGGGLVQAGGSLRLSCAASGRIFSSYAKGWYRQAPGKERELVAAISRGGGRTYYADSVKGRFTISRDNAKNTVYLQMNSLKPEDTAVYYCATVGRSAAYAFDYWGQGTQVTVSS", "polyreactivity (PSR sort gate)": "high polyreactivity"}
{"sequence": "QVQLVESGGGLVQAGGSLRLSCAASGRIFSSYAMGWYRQAPGKERELVAAISSRGGSTYYADSVKGRFTIARDNAKNTVYLQMNSLKPEDTAVYYCARVKYSGVVYKYDYWGQGTQVTVSS", "polyreactivity (PSR sort gate)": "high polyreactivity"}
{"sequence": "QVQLVESGGGLVQAGGSLRLSCAASGRIFSSYAMGWYRQAPGKERELVAAITRGGSTYYADSVKGRFTISRDNAKNTVYLQMNSLKPEDTAVYYCNAVGFYAANTFDYWGQGTQVTVSS", "polyreactivity (PSR sort gate)": "high polyreactivity"}
{"sequence": "QVQLVESGGGLVQAGGSLRLSCAASGRIFSSYVMGWYRQAPGKERELVAAIRWSGGSTYYADSVKGRFTISRDNAKNTVYLQMNSLKPEDTAVYYCAARHVLYGYYLYDYWGQGTQVTVSS", "polyreactivity (PSR sort gate)": "high polyreactivity"}
{"sequence": "QVQLVESGGGLVQAGGSLRLSCAASGRIFSTNAMGWYRQAPGKEWELVAAITRGVSTKYADSVKGRFTISRDNAKNTVYLQMNSLKPEDTAVYYCAARVVWGPESDYWGQGTQVTVSS", "polyreactivity (PSR sort gate)": "low polyreactivity"}
{"sequence": "QVQLVESGGGLVQAGGSLRLSCAASGRIFSTYAMGWYRQAPGKERELVAAINKIGGSTYYADSVKGRFTISRDNAKNTDYLQMNSLKPEDSAVYYCAADAPYYPVRRYYYWGQGTQVTVSS", "polyreactivity (PSR sort gate)": "low polyreactivity"}
{"sequence": "QVQLVESGGGLVQAGGSLRLSCAASGRIFSVNAMGWYRQAPGTEREFVAAISWSGSSTYYADSVKGRFTSSRDNAKITVYLQMNSLKPEDTAVYYCNADIDFGTREVYYWGQGTQVTVSS", "polyreactivity (PSR sort gate)": "low polyreactivity"}
{"sequence": "QVQLVESGGGLVQAGGSLRLSCAASGRIFSVYAMGWYRQAPGKEREFVASISWRGGRTYYADSVKGRFTISRDNAKNTFYLQMNSLKPEDTAVYYCAAVSYPAVYGFDYWGQGTQVTVSS", "polyreactivity (PSR sort gate)": "high polyreactivity"}
{"sequence": "QVQLVESGGGLVQAGGSLRLSCAASGRIFSVYGMGWYRQAPGKERELVAAMSSSAGSTNYADSVKGRFTISRDNAKNTVYLQMISLKPEDTAVYYCAAYYRRVVYYPTAYYIRKYDYWGQGSQVTVSS", "polyreactivity (PSR sort gate)": "high polyreactivity"}
{"sequence": "QVQLVESGGGLVQAGGSLRLSCAASGRIFSWNTMGWYRQAPGKERELVAAISSSDGSTYYADSVKGRFTISRDNAKNTVYLQMNSVKPEDTAVYYCNKVVSRWNQRWRYSEGNYWGQGTQVTVSS", "polyreactivity (PSR sort gate)": "high polyreactivity"}
{"sequence": "QVQLVESGGGLVQAGGSLRLSCAASGRIFSWYAMGWYRQAPGKERELVAAISASGSSTYYADSVKGRFTISRDNAKNTVYLQMNSLKPEDTAVYYCNTVSAYYARRSEGYDYWGQGTQVTVSS", "polyreactivity (PSR sort gate)": "high polyreactivity"}
{"sequence": "QVQLVESGGGLVQAGGSLRLSCAASGRIFSWYAMGWYRQAPGKERELVAAITVRGSTYYADSVKGRFTISRDNAKNTVYLQMNSLKPEDTAVYYCAAKSSRYAYDYWGQGTQVTVSS", "polyreactivity (PSR sort gate)": "low polyreactivity"}
{"sequence": "QVQLVESGGGLVQAGGSLRLSCAASGRIFSWYAMGWYRQAPGKERELVARITTRGGNTYYADSVKGRFTFSRDNAKNTVYLQMNSLKPEVTAVYYCAARHPYPIYDYWGQGTQVSVSS", "polyreactivity (PSR sort gate)": "low polyreactivity"}
{"sequence": "QVQLVESGGGLVQAGGSLRLSCAASGRIFSYFAMGWYRQAPGKEWELVAASSGNGGSTYYADSVKGRFTISRDNAKNTVYLHMNSLKPEDTAVYYCAADWRSSDWAYLYPYSYDDWGQGTQVTVSS", "polyreactivity (PSR sort gate)": "low polyreactivity"}
{"sequence": "QVQLVESGGGLVQAGGSLRLSCAASGRIFSYNAMGWYRQAPGKERELVAAISSDGSTYYADSVKGRFTISRDNAKNTVYLQMNSLKPVDTAVYYCAARQVVWFDYTTAQVGSYKVNYWGQGTQVTVSS", "polyreactivity (PSR sort gate)": "low polyreactivity"}
{"sequence": "QVQLVESGGGLVQAGGSLRLSCAASGRIFSYNAMGWYRQAPGKERELVAAISTGTSTYYADSVKGRFTISGDNAKNTVYLQMNSLKPEDTAVYYCAVDAYYWYQWYDYWGQGTQVTVSS", "polyreactivity (PSR sort gate)": "low polyreactivity"}
{"sequence": "QVQLVESGGGLVQAGGSLRLSCAASGRIFSYNAMGWYRQAPGKERELVAAITFSGGGTYYADSVKGRFTISRDNAKYTVYLQMNSLKPEDTAVYYCNKVSYGYSTYGYWGQGTQVTVSS", "polyreactivity (PSR sort gate)": "low polyreactivity"}
{"sequence": "QVQLVESGGGLVQAGGSLRLSCAASGRIFSYNAMGWYRQAPGKERELVAPINTSGGSTYYADSVKGRFTISRDNAKNTVYLHMNSLKPEDTAVYYCNATLPVYWPYYYYQGGDDDWGQGTQVTVSS", "polyreactivity (PSR sort gate)": "low polyreactivity"}
{"sequence": "QVQLVESGGGLVQAGGSLRLSCAASGRIFSYNAMGWYRQAPGKERELVARINWSSGRTYYADSVKGRFTISRDNAKNTVYLQMNSLKPEDTAVYYCNRVSRGPVGGYYWGQGTQVTVSS", "polyreactivity (PSR sort gate)": "high polyreactivity"}
{"sequence": "QVQLVESGGGLVQAGGSLRLSCAASGRIFSYNAMGWYRQEPGKERELVASITSGGGRTYYADSVKGRFTISRDYAKNTVYLQMNSLKPVDTAVYYCAADGEVKYDYWGQGTQVTVSS", "polyreactivity (PSR sort gate)": "low polyreactivity"}
{"sequence": "QVQLVESGGGLVQAGGSLRLSCAASGRIFSYNDMGWYRQAPGKERELVAAISWNSGRTYYADSVKGRFTISRDNAKNTVYLQMNSLKPEDTAVYYCNAPYWKSRFRAYYHWGQGTQVTVSS", "polyreactivity (PSR sort gate)": "high polyreactivity"}
{"sequence": "QVQLVESGGGLVQAGGSLRLSCAASGRIFSYYAMGWYRQAPGKERELVAAISNGGNTYYADSVKGRFTISRDNAKNTVYLQMNSLKPEDTAVYYCYVRRYDYWGQGTQVTVSS", "polyreactivity (PSR sort gate)": "high polyreactivity"}
{"sequence": "QVQLVESGGGLVQAGGSLRLSCAASGRIFSYYAMGWYRQAPGKERELVAAITSAGGTNYADSVKGRFTISRDNAKNTVYLQMNSLNPEDTAVYYCAAAKRDFVEYDYWGQGTQVTVSS", "polyreactivity (PSR sort gate)": "low polyreactivity"}
{"sequence": "QVQLVESGGGLVQAGGSLRLSCAASGRIFSYYAMGWYRQAPGKERELVAVISRRGDNTYYADSVKGRFTISRDNAKNTVYLQMNSLKPEDTAVYYCAVQFVFIFYYGYDYWGQGTQVTVSS", "polyreactivity (PSR sort gate)": "high polyreactivity"}
{"sequence": "QVQLVESGGGLVQAGGSLRLSCAASGRIFSYYDIGWYRQAPGKERELVAAITGGGRTIYADSVKGRFTISRDNAKNTVYLQMNILKTEDTAVYYCNARARSRKFYYWGQGTQVTVSS", "polyreactivity (PSR sort gate)": "high polyreactivity"}
{"sequence": "QVQLVESGGGLVQAGGSLRLSCAASGRIFTANAMGCYIQAPGKERELVAAISWRGGSTYYADSVKGRFTISRDNAKNTVYLQMNSLKPEDTAVYYCNKVGATWRQWFGYWGQGTQVTVSS", "polyreactivity (PSR sort gate)": "high polyreactivity"}
{"sequence": "QVQLVESGGGLVQAGGSLRLSCAASGRIFTGNAMGWYRQAPGKERELVAAISRRGTRTYYADSVKGRFTISRDNAKNTVYLQMNSLKPEDTAVYYCATRPGYWRYEYWGQGTQVTVSS", "polyreactivity (PSR sort gate)": "high polyreactivity"}
{"sequence": "QVQLVESGGGLVQAGGSLRLSCAASGRIFTGNVMRWYRQAPGKERELVAAISYGGGSTNYSDSVKGRFTISRDNAKNTVYLQMNSLKQEDTAVYYCAACIKRYLSYYTRYGYWGQGTQVTVSS", "polyreactivity (PSR sort gate)": "high polyreactivity"}
{"sequence": "QVQLVESGGGLVQAGGSLRLSCAASGRIFTGYAMGWYRQAPGKERELVAAINWSGGSTYYADSVKGRFTISRDNAKNTVYLQMNSLKPADTAVYYCNAGYVFSGSYYKYDYWGQGTQVTVSS", "polyreactivity (PSR sort gate)": "high polyreactivity"}
{"sequence": "QVQLVESGGGLVQAGGSLRLSCAASGRIFTGYTMGWYRQAPGKERELVAGITGSSGSTYYADSVKGRFTISRDNAKNTVYLQMNSLKPEDTAVYYCAAGRRYRSVGYGYWGQGTQVTVSS", "polyreactivity (PSR sort gate)": "high polyreactivity"}
{"sequence": "QVQLVESGGGLVQAGGSLRLSCAASGRIFTHNAMGWYRQAPGKERELVAAITSGGRTTYADSVKGRFTFSRDNAKNTVYLQMIRLKPEDTAVYYCNADTGLGSLDFDNRDYWGQGTQVTVSS", "polyreactivity (PSR sort gate)": "low polyreactivity"}
{"sequence": "QVQLVESGGGLVQAGGSLRLSCAASGRIFTHNAMGWYRQAPGKERELVAAITSGGRTTYADSVKGRFTISRDNAKNTVYFQMNSLKPEDTAVYYCNADTGLGSLDFDKRDYWGQGTQVTVSS", "polyreactivity (PSR sort gate)": "low polyreactivity"}
{"sequence": "QVQLVESGGGLVQAGGSLRLSCAASGRIFTINAMGWYRQAPGKERELVAAITGSAASTYYADSVKGRFTISRDNAKNTVYLQMNSLKPEDTAVYYCAAGYRRIPYEYWGQATQVTVSS", "polyreactivity (PSR sort gate)": "high polyreactivity"}
{"sequence": "QVQLVESGGGLVQAGGSLRLSCAASGRIFTIYAMGWYRQAPGKERELVAAISDRGTRTYYADSVKGRFTISRDNAKNTVYLQMNSLKPEDTAVYYCATDALYTYGYDYWGQGTQVTVSS", "polyreactivity (PSR sort gate)": "low polyreactivity"}
{"sequence": "QVQLVESGGGLVQAGGSLRLSCAASGRIFTIYAMGWYRQAPGKERELVATISRRGGSTYYADSVKGRFTISRDNSKNTVYLQMNSLKPEDTAVYYCAAESVITWWAYDYWGQGTQVTVSS", "polyreactivity (PSR sort gate)": "high polyreactivity"}
{"sequence": "QVQLVESGGGLVQAGGSLRLSCAASGRIFTIYVMGWYRPAPGKERELVATITYSSGSTSYADSVKGRFTISRDNAKNTVYLQMNSLKPEDTAVYYCATDIHSVHNNRDKHDYDYWGQGTQVSVSS", "polyreactivity (PSR sort gate)": "low polyreactivity"}
{"sequence": "QVQLVESGGGLVQAGGSLRLSCAASGRIFTKNTMGWYRQAPGKERELVAAIRSRAGSTYYADSVKGRFTISRDNAKNTVYLQMNSLKPEDTAVYYCAVPWFRSVDFDYWGQGTQVTVSS", "polyreactivity (PSR sort gate)": "low polyreactivity"}
{"sequence": "QVQLVESGGGLVQAGGSLRLSCAASGRIFTKYPMGRYRQATGKERELVAAITSGGRTYYADSVKGRFTISRDNAKNTVYLQMNSLKPEDTAVYFCAARYVQVVRKFGFRGQGTQVTVSS", "polyreactivity (PSR sort gate)": "high polyreactivity"}
{"sequence": "QVQLVESGGGLVQAGGSLRLSCAASGRIFTLYDMGWYRQAPGKERELVAAISNSAGSTYYADSVKGRFTISRDNAKNTVYLQMNSLKPEDTAVYYCAAELWSWWGSRDYWGQGTQVTVSS", "polyreactivity (PSR sort gate)": "high polyreactivity"}
{"sequence": "QVQLVESGGGLVQAGGSLRLSCAASGRIFTNNAMGWYRQAPGKERELVAAISKRGGSTYYADSVKGRFTISRDNAKNTVYLQMNSLKPEDTAVYYCNAREYIHWRGALGLFGSWGQGTQVTVSS", "polyreactivity (PSR sort gate)": "high polyreactivity"}
